# Measurements reported in the MegaScale stability set (Tsuboyama et al. 2023).
# B1: 1ZHC (parent)
# chain: HEFRDEISVLKANNPHFDKIFEKHNQLDDDIKTAEQQNASDAEVSHMKKQKLKLKDEIHSMIIEYREK
# Variants of: B1
# Assay: folding stability dG (cDNA display proteolysis); higher = more stable
# Conditions: PBS, room temperature
row,Variant,folding stability dG [kJ/mol]
1,HEFRDEISVLKANNPHFDKIFEKHNQLDDDIITAEQQNASDAEVSHMKKQKLKLKDEIHSMIIEYREK [K32I],0.565
2,HEFRDEISVLKANNPHFDKIFEKHNQLDDDIATAEQQNASDAEVSHMKKQKLKLKDEIHSMIIEYREK [K32A],1.89
3,HEFRDEISVLKANNPHFDKIFEKHNQLDDDIHTAEQQNASDAEVSHMKKQKLKLKDEIHSMIIEYREK [K32H],1.46
4,HEFRDEISVLKANNPHFDKIFEKHNQLDDDIFTAEQQNASDAEVSHMKKQKLKLKDEIHSMIIEYREK [K32F],1.16
5,HEFRDEISVLKANNPHFDKIFEKHNQLDDDIETAEQQNASDAEVSHMKKQKLKLKDEIHSMIIEYREK [K32E],0.0335
6,HEFRDEISVLKANNPHFDKIFEKHNQLDDDIDTAEQQNASDAEVSHMKKQKLKLKDEIHSMIIEYREK [K32D],-2.85
7,HEFRDEISVLKANNPHFDKIFEKHNQLDDDICTAEQQNASDAEVSHMKKQKLKLKDEIHSMIIEYREK [K32C],0.556
8,HEFRDEISVLKANNPHFDKIFEKHNQLYDDIKTAEQQNASDAEVSHMKKQKLKLKDEIHSMIIEYREK [D28Y],2.34
9,HEFRDEISVLKANNPHFDKIFEKHNQLMDDIKTAEQQNASDAEVSHMKKQKLKLKDEIHSMIIEYREK [D28M],5.05
10,HEFRDEISVLKANNPHFDKIFEKHNQLLDDIKTAEQQNASDAEVSHMKKQKLKLKDEIHSMIIEYREK [D28L],3.95
11,HEFRDEISVLKANNPHFDKIFEKHNQLADDIKTAEQQNASDAEVSHMKKQKLKLKDEIHSMIIEYREK [D28A],5.72
12,HEFRDEISVLKANNPHFDKIFEKHNQLKDDIKTAEQQNASDAEVSHMKKQKLKLKDEIHSMIIEYREK [D28K],1.73
13,HEFRDEISVLKANNPHFDKIFEKHNQLSDDIKTAEQQNASDAEVSHMKKQKLKLKDEIHSMIIEYREK [D28S],3.36
14,HEFRDEISVLKANNPHFDKIFEKHNQLQDDIKTAEQQNASDAEVSHMKKQKLKLKDEIHSMIIEYREK [D28Q],3.32
15,HEFRDEISVLKANNPHFDKIFEKHNQLFDDIKTAEQQNASDAEVSHMKKQKLKLKDEIHSMIIEYREK [D28F],1.24
16,HEFRDEISVLKANNPHFDKIFEKHNQLWDDIKTAEQQNASDAEVSHMKKQKLKLKDEIHSMIIEYREK [D28W],3.06
17,HEFRDEISVLKANNPHFDKIFEKHNQLEDDIKTAEQQNASDAEVSHMKKQKLKLKDEIHSMIIEYREK [D28E],4.92
18,HEFRDEISVLKANNPHFDKIFEKHNQLTDDIKTAEQQNASDAEVSHMKKQKLKLKDEIHSMIIEYREK [D28T],6.18
19,HEFRDEISVLKANNPHFDKIFEKHNQLVDDIKTAEQQNASDAEVSHMKKQKLKLKDEIHSMIIEYREK [D28V],5.41
20,HEFRDEISVLKANNPHFDKIFEKHNQLRDDIKTAEQQNASDAEVSHMKKQKLKLKDEIHSMIIEYREK [D28R],4.13
21,HEFRDEISVLKANNPHFDKIFEKHNQLGDDIKTAEQQNASDAEVSHMKKQKLKLKDEIHSMIIEYREK [D28G],3.29
22,HEFRDEISVLKANNPHFDKIFEKHNQLIDDIKTAEQQNASDAEVSHMKKQKLKLKDEIHSMIIEYREK [D28I],4.74
23,HEFRDEISVLKANNPHFDKIFEKHNQLHDDIKTAEQQNASDAEVSHMKKQKLKLKDEIHSMIIEYREK [D28H],3.17
24,HEFRDEISVLKANNPHFDKIFEKHNQLDDDDKTAEQQNASDAEVSHMKKQKLKLKDEIHSMIIEYREK [I31D],-3.89
25,HEFRDEISVLKANNPHFDKIFEKHNQLDDDLKTAEQQNASDAEVSHMKKQKLKLKDEIHSMIIEYREK [I31L],-0.389
26,HEFRDEISVLKANNPHFDKIFEKHNQLDDDVKTAEQQNASDAEVSHMKKQKLKLKDEIHSMIIEYREK [I31V],-0.82
27,HEFRDEISVLKANNPHFDKIFEKHNQLDDDCKTAEQQNASDAEVSHMKKQKLKLKDEIHSMIIEYREK [I31C],-3.66

row,Variant,folding stability dG [kJ/mol]
1,HEFRDEISVLKANNPHFDKIFEKHNQLDDDHKTAEQQNASDAEVSHMKKQKLKLKDEIHSMIIEYREK [I31H],-3.11
2,HEFRDEISVLKANNPHFDKIFEKHNQLDDDNKTAEQQNASDAEVSHMKKQKLKLKDEIHSMIIEYREK [I31N],-2.09
3,HEFRDEISVLKANNPHFDKIFEKHNQLDLDIKTAEQQNASDAEVSHMKKQKLKLKDEIHSMIIEYREK [D29L],6.52
4,HEFRDEISVLKANNPHFDKIFEKHNQLDVDIKTAEQQNASDAEVSHMKKQKLKLKDEIHSMIIEYREK [D29V],5.17
5,HEFRDEISVLKANNPHFDKIFEKHNQLDNDIKTAEQQNASDAEVSHMKKQKLKLKDEIHSMIIEYREK [D29N],6.21
6,HEFRDEISVLKANNPHFDKIFEKHNQLDADIKTAEQQNASDAEVSHMKKQKLKLKDEIHSMIIEYREK [D29A],6
7,HEFRDEISVLKANNPHFDKIFEKHNQLDQDIKTAEQQNASDAEVSHMKKQKLKLKDEIHSMIIEYREK [D29Q],6.26
8,HEFRDEISVLKANNPHFDKIFEKHNQLDHDIKTAEQQNASDAEVSHMKKQKLKLKDEIHSMIIEYREK [D29H],6.31
9,HEFRDEISVLKANNPHFDKIFEKHNQLDSDIKTAEQQNASDAEVSHMKKQKLKLKDEIHSMIIEYREK [D29S],5.02
10,HEFRDEISVLKANNPHFDKIFEKHNQLDKDIKTAEQQNASDAEVSHMKKQKLKLKDEIHSMIIEYREK [D29K],7.48
11,HEFRDEISVLKANNPHFDKIFEKHNQLDMDIKTAEQQNASDAEVSHMKKQKLKLKDEIHSMIIEYREK [D29M],6.28
12,HEFRDEISVLKANNPHFDKIFEKHNQLDTDIKTAEQQNASDAEVSHMKKQKLKLKDEIHSMIIEYREK [D29T],2.26
13,HEFRDEISVLKANNPHFDKIFEKHNQLDGDIKTAEQQNASDAEVSHMKKQKLKLKDEIHSMIIEYREK [D29G],3.23
14,HEFRDEISVLKANNPHFDKIFEKHNQLDEDIKTAEQQNASDAEVSHMKKQKLKLKDEIHSMIIEYREK [D29E],5.2
15,HEFRDEISVLKANNPHFDKIFEKHNQLDRDIKTAEQQNASDAEVSHMKKQKLKLKDEIHSMIIEYREK [D29R],6.99
16,HEFRDEISVLKANNPHFDKIFEKHNQLDYDIKTAEQQNASDAEVSHMKKQKLKLKDEIHSMIIEYREK [D29Y],5.23
17,HEFRDEISVLKANNPHFDKIFEKHNQLDWDIKTAEQQNASDAEVSHMKKQKLKLKDEIHSMIIEYREK [D29W],5.28
18,HEFRDEISVLKANNPHFDKIFEKHNQLDCDIKTAEQQNASDAEVSHMKKQKLKLKDEIHSMIIEYREK [D29C],4.9
19,HEFRDEISVLKANNPHFDKIFEKHNQLDFDIKTAEQQNASDAEVSHMKKQKLKLKDEIHSMIIEYREK [D29F],5.78
20,HEFRDEISVLKANNPHFDKIFEKHNQLDIDIKTAEQQNASDAEVSHMKKQKLKLKDEIHSMIIEYREK [D29I],6
21,HEFRDEISVLKANNPHFDKIFEKHNVLDDDIKTAEQQNASDAEVSHMKKQKLKLKDEIHSMIIEYREK [Q26V],-0.544
22,HEFRDEISVLKANNPHFDKIFEKHNSLDDDIKTAEQQNASDAEVSHMKKQKLKLKDEIHSMIIEYREK [Q26S],1.38
23,HEFRDEISVLKANNPHFDKIFEKHNYLDDDIKTAEQQNASDAEVSHMKKQKLKLKDEIHSMIIEYREK [Q26Y],-3.77
24,HEFRDEISVLKANNPHFDKIFEKHNWLDDDIKTAEQQNASDAEVSHMKKQKLKLKDEIHSMIIEYREK [Q26W],-2.57
25,HEFRDEISVLKANNPHFDKIFEKHNTLDDDIKTAEQQNASDAEVSHMKKQKLKLKDEIHSMIIEYREK [Q26T],0.9
26,HEFRDEISVLKANNPHFDKIFEKHNNLDDDIKTAEQQNASDAEVSHMKKQKLKLKDEIHSMIIEYREK [Q26N],0.77
27,HEFRDEISVLKANNPHFDKIFEKHNMLDDDIKTAEQQNASDAEVSHMKKQKLKLKDEIHSMIIEYREK [Q26M],-0.255

row,Variant,folding stability dG [kJ/mol]
1,HEFRDEISVLKANNPHFDKIFEKHNRLDDDIKTAEQQNASDAEVSHMKKQKLKLKDEIHSMIIEYREK [Q26R],5.34
2,HEFRDEISVLKANNPHFDKIFEKHNQFDDDIKTAEQQNASDAEVSHMKKQKLKLKDEIHSMIIEYREK [L27F],0.0209
3,HEFRDEISVLKANNPHFDKIFEKHNQCDDDIKTAEQQNASDAEVSHMKKQKLKLKDEIHSMIIEYREK [L27C],1.16
4,HEFRDEISVLKANNPHFDKIFEKHNQIDDDIKTAEQQNASDAEVSHMKKQKLKLKDEIHSMIIEYREK [L27I],0.544
5,HEFRDEISVLKANNPHFDKIFEKHNQWDDDIKTAEQQNASDAEVSHMKKQKLKLKDEIHSMIIEYREK [L27W],-2.41
6,HEFRDEISVLKANNPHFDKIFEKHNQYDDDIKTAEQQNASDAEVSHMKKQKLKLKDEIHSMIIEYREK [L27Y],-1.3
7,HEFRDEISVLKANNPHFDKIFEKHNQVDDDIKTAEQQNASDAEVSHMKKQKLKLKDEIHSMIIEYREK [L27V],1.38
8,HEFRDEISVLKANNPHFDKIFEKHNQMDDDIKTAEQQNASDAEVSHMKKQKLKLKDEIHSMIIEYREK [L27M],0.828
9,HEFRDEISVLKANNPHFDKIFEKHNQLDDGIKTAEQQNASDAEVSHMKKQKLKLKDEIHSMIIEYREK [D30G],-0.414
10,HEFRDEISVLKANNPHFDKIFEKHNQLDDKIKTAEQQNASDAEVSHMKKQKLKLKDEIHSMIIEYREK [D30K],4.19
11,HEFRDEISVLKANNPHFDKIFEKHNQLDDVIKTAEQQNASDAEVSHMKKQKLKLKDEIHSMIIEYREK [D30V],-1.16
12,HEFRDEISVLKANNPHFDKIFEKHNQLDDEIKTAEQQNASDAEVSHMKKQKLKLKDEIHSMIIEYREK [D30E],3.28
13,HEFRDEISVLKANNPHFDKIFEKHNQLDDTIKTAEQQNASDAEVSHMKKQKLKLKDEIHSMIIEYREK [D30T],1.66
14,HEFRDEISVLKANNPHFDKIFEKHNQLDDRIKTAEQQNASDAEVSHMKKQKLKLKDEIHSMIIEYREK [D30R],4.5
15,HEFRDEISVLKANNPHFDKIFEKHNQLDDLIKTAEQQNASDAEVSHMKKQKLKLKDEIHSMIIEYREK [D30L],5.3
16,HEFRDEISVLKANNPHFDKIFEKHNQLDDAIKTAEQQNASDAEVSHMKKQKLKLKDEIHSMIIEYREK [D30A],5.85
17,HEFRDEISVLKANNPHFDKIFEKHNQLDDQIKTAEQQNASDAEVSHMKKQKLKLKDEIHSMIIEYREK [D30Q],5.25
18,HEFRDEISVLKANNPHFDKIFEKHNQLDDYIKTAEQQNASDAEVSHMKKQKLKLKDEIHSMIIEYREK [D30Y],3.59
19,HEFRDEISVLKANNPHFDKIFEKHNQLDDNIKTAEQQNASDAEVSHMKKQKLKLKDEIHSMIIEYREK [D30N],1.5
20,HEFRDEISVLKANNPHFDKIFEKHNQLDDSIKTAEQQNASDAEVSHMKKQKLKLKDEIHSMIIEYREK [D30S],2.19
21,HEFRDEISVLKANNPHFDKIFEKHNQLDDMIKTAEQQNASDAEVSHMKKQKLKLKDEIHSMIIEYREK [D30M],6.95
22,HEFRDEISVLKANNPHFDKIFEKHNQLDDFIKTAEQQNASDAEVSHMKKQKLKLKDEIHSMIIEYREK [D30F],3.42
23,HEFRDEISVLKANNPHFDKIFEKHNQLDDIIKTAEQQNASDAEVSHMKKQKLKLKDEIHSMIIEYREK [D30I],2.98
24,HEFRDEISVLKANNPHFDKIFEKHNQLDDWIKTAEQQNASDAEVSHMKKQKLKLKDEIHSMIIEYREK [D30W],4.56
25,HEFRDEISVLKANNPHFDKIFEKHNQLDDCIKTAEQQNASDAEVSHMKKQKLKLKDEIHSMIIEYREK [D30C],5.05
